T1: human CD73 on Calu6 cells (human, UniProt P21589 27-549)
T1 sequence (looked up): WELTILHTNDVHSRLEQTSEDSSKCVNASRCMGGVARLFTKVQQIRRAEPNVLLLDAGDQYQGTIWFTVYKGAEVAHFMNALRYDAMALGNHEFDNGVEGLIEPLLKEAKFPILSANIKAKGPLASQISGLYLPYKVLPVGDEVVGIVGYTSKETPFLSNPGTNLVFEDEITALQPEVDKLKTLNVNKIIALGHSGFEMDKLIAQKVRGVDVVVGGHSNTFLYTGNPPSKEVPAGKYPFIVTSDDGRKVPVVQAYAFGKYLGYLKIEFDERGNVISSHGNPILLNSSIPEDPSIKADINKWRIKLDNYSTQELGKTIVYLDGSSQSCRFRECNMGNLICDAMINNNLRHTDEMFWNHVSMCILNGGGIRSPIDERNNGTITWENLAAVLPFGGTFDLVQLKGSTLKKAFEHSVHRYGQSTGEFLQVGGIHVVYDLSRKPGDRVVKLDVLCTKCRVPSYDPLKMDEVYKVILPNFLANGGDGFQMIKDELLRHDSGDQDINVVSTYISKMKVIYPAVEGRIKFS

T2: human full-length CD73 on hCD73-CHO-1C11 cells (human, UniProt P21589 27-549)
T2 construct: it may be a nucleotide entry; also called CHO-CD73-1C11
T2 sequence: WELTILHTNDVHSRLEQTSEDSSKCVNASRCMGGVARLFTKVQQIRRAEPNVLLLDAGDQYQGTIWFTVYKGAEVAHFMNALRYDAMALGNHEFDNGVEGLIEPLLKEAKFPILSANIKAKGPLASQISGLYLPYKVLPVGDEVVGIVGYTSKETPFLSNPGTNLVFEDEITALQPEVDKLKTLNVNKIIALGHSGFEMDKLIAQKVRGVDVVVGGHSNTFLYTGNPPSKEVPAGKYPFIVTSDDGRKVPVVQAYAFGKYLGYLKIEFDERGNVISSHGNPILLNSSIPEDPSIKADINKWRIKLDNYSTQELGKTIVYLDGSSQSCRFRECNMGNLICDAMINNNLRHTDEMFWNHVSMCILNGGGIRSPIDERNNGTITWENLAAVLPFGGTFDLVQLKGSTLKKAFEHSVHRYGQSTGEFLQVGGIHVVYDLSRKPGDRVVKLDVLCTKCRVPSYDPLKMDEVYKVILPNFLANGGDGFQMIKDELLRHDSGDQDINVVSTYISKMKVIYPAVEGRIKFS

T3: recombinant cynomolgus monkey CD73 extracellular domain (Trp27-Lys546) (cynomolgus monkey, UniProt P21589 27-547 (human entry))
T3 construct: also called cynoCD73; recombinant monkey CD73 extracellular domain
T3 chain: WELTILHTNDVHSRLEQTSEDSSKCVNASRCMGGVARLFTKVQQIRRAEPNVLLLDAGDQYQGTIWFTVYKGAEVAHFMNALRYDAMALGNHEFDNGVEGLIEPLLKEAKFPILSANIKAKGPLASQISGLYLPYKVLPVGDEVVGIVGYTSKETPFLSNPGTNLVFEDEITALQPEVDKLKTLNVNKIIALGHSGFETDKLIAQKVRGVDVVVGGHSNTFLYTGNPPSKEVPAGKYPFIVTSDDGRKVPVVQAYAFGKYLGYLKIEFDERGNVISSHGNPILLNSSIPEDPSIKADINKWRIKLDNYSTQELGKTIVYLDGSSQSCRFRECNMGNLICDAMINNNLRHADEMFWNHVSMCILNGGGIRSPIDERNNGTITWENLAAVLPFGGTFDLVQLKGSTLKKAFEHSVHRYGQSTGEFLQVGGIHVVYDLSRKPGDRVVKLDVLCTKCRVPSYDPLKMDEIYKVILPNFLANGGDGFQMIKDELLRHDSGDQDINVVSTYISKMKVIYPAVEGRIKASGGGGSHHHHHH

T4: recombinant human CD73 extracellular domain (Trp27-Lys546) with C-terminal 6-histidine tag (human, UniProt P21589 27-547)
T4 construct: also called hCD73; hCD73-cHis
T4 sequence: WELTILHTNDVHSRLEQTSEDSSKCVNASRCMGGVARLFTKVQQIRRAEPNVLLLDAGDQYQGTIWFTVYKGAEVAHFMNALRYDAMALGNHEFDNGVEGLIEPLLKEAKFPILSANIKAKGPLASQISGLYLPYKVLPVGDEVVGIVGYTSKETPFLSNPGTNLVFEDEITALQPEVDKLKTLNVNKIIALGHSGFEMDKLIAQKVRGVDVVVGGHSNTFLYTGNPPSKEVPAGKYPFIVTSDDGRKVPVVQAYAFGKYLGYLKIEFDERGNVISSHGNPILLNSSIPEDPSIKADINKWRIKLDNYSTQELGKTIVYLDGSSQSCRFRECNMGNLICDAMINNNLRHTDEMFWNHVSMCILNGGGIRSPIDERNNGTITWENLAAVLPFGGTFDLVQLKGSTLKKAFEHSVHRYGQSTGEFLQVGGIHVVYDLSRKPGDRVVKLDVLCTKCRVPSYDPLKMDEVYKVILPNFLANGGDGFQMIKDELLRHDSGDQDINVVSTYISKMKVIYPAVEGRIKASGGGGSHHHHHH


Key:
[1] = molecular target: T1, human CD73 on Calu6 cells; assay: cell-based or functional assay
[2] = molecular target: T2, human full-length CD73 on …; assay: FACS on CHO-CD73-1C11 cells
[3] = molecular target: T3, recombinant cynomolgus monkey CD73 …; assay: ELISA, plate coated with recombinant CD73 extracellular domain
[4] = molecular target: T4, recombinant human CD73 extracellular …; assay: as above
[5] = molecular target: T1, human CD73 on Calu6 cells; assay: FACS on Calu6 cells
[6] = molecular target: T1, human CD73 on Calu6 cells; assay: cell-based or functional assay; remark: listed apart in the source
[7] = molecular target: T4, recombinant human CD73 extracellular …; assay: SPR, Biacore T200, antibody captured on Protein A chip, hCD73 ECD as analyte, 1:1 Langmuir
Procedure: The affinity of CD73 antibody was determined by plasma surface resonance on Biacore T200. At room temperature, the antibody concentration was diluted to 0.5 μg/mL with 1×HBS-EP buffer (prepared from HBS-EP+Buffer 10×, GE, BR1008-26), the Protein A chip (GE, 29-1275-56) was coated with a flow rate of 10 μL per minute, the capture time was about 40 seconds, and the coated RU value was controlled to be about 100 RU. The recombinant human CD73 extracellular domain protein was diluted to 3 μg/mL with 1×HBS-EP buffer, diluted to two-fold gradient, a total of 6 concentrations, 200 μL of each concentration gradient. The 1×HBS-EP buffer was used as a control, the flow rate was 30 μl/min, the binding time was 120 seconds, and the dissociation time was 600 seconds. The affinity was fitted using Langmuir 1:1 Kinetic theoretical model and analyzed by Biacore T200 Evaluation Software (Table 3).

Binder | CD73 endocytosis ratio %, 30 minutes [1] | CD73 endocytosis ratio %, 60 minutes [1] | CD73 endocytosis ratio %, 120 minutes [1] | CD73 endocytosis ratio %, 240 minutes [1] | CD73 endocytosis ratio %, 480 minutes [1] | EC50 [2] | EC50 [3] | EC50 [4] | EC50 [5] | Inhibition of CD73 enzyme activity IC50(nM), Calu6 [6] | Kd [7] | koff [7] | kon [7]
CD73 antibody 2D4 (antibody, V domains shown, also called Clone 2D4) VH: EVKLVESGGGLVQPGGSLKLSCATSGFTFSDYYMYWVRQTPEKRLEWVAYISNVGGSTYYPDTVKGRFTISRDNAKNTLYLQMSRLKSEDTAIYYCARGDGYYGYYFDVWGAGTTVTVSS VL: QIVLTQSPAIMSASPGEKVTMTCSASSSVSYMHWYQQKSGTSPKRWIYDTSKLASGVPARFSGSGSGTSYSLTISSMEAEDAATYYCQQWSSNPYTFGGGTKLEIK | 19.1% | 28.1% | 29.7% | 39.5% | 36.9% | 1.76 nM | 0.02 nM | 0.02 nM | 1.25 nM | 0.47 nM | – | – | –
CD73 antibody 2H2 (antibody, V domains shown, also called Clone 2H2) VH: EVKLVESGGGLVQPGGSLKLSCATSGFTFSDYYMYWVRQTPEKRLEWVAYISNVGGSTYYPDTVKGRFTISRDNAKNTLYLQMSRLKSEDTAMYYCARGDGYYGYYFDVWGAGTTVTVSS VL: ENVLTQSPAIMSASPGEKVTMTCSASSSVSYMHWYQQKSGTSPKRWIYDTSKLASGVPTRFSGSGSGTSFSLTISSMEAEDAATYYCQQWSSNPYTFGGGTKLEIK | 22.4% | 27.4% | 45.8% | 33.4% | 49.3% | 1.53 nM | 0.02 nM | 0.02 nM | 0.93 nM | 4.03 nM | – | – | –
humanized anti-CD73 antibody 6G8 VH-v1/VK-v1 (antibody, V domains shown, Human IgG1 CH1-CH3 constant region and kappa constant region; also called hu6G8 VHv1 + hu6G8 Vkv1) VH: QVTLRESGPALVKPTQTLTLTCTFSGFSLSTSGMGVGWIRQPPGKALEWLAHIWWDDDKYYNPSLKSRLTISKDTSKNQVVLTMTNMDPVDTATYYCARRERWAWFAYWGQGTLVTVSS VL: DIQMTQSPSSLSASVGDRVTITCRASQNVFTNVAWYQQKPGKAPKVLIYSASYRYSGVPSRFSGSGSGTDFTLTISSLQPEDFATYFCQQYNSYPTFGQGTKLEIK | – | – | – | – | – | – | – | – | – | – | 0.272 nM | 0.000106 s⁻¹ | 389000 M⁻¹ s⁻¹
CD73 antibody 14E4 (antibody, V domains shown, Mouse variable regions on human IgG heavy chain constant region and human kappa constant region (chimeric IgG); also called Clone 14E4) VH: QVQLQQSGPELVKPGASVKISCKASGYIFTNYYIHWVKQRPGQGLEWIGWIFPGSGNTKYSEKFKDKATLTADTSSSTAYMQLSSLTSEDSAVYFCAGLSDWGQGTTLTVSS VL: DIQMTQSPSSLSASLGERVSLTCRASQDIGDRLIWLQQEPAGTFKRLIYATSSLDSGVPKRFSGSRSGSDYSLTISSLESEDFVDYYCLQYASSPWTFGGGTKLEIK | – | 19.3% | 2.6% | 12.7% | 2.6% | 6.55 nM | 0.18 nM | 0.06 nM | 2.56 nM | 4.57 nM | – | – | –
CD73 antibody 6A8 (antibody, V domains shown, Mouse variable regions on human IgG heavy chain constant region and human kappa constant region (chimeric IgG); also called Clone 6A8) VH: QVQFQQSGAELARPGTSVKLSCKASGYIFTSYWIQWIKQRPGQGLEWIGAIYPGDGDTRYTQKFKGKATLTAEKSSSTAYMQLRSLASEDSAVYYCAGFASWGQGTLLTVSA VL: DIQMTQSPSSLSASLGERVNLTCRASQDIGDSLIWLQQEPDGTIKRLIYATSSLDSGVPKRFSGSRSGSDYSLTISSLESEDLVDYYCLQYASSPFTFGGGTKLEIK | – | 16.2% | – | – | – | 11 nM | 0.09 nM | 0.08 nM | 3.51 nM | 6.63 nM | – | – | –
CD73 antibody 8A8 (antibody, V domains shown, Mouse variable regions on human IgG heavy chain constant region and human kappa constant region (chimeric IgG); also called Clone 8A8) VH: QVQFQQSGAELARPGASVKLSCKASGYIFTSYWIQWIKQRPGQGLEWIGAIYPGDGDTRYTQKFKGKATLTADKSSSTAYMQLRSLASEDSAVYYCAGFASWGQGTLLTVSA VL: DIQMTQSPSSLSASLGERVSLTCRASQDIGESLIWLQQEPDGTIKRLIYATSSLDSGVPKRFSGSRSGSDYSLSISSLESDDFVDYYCLQYSSSPYTFGGGTKLEIK | 21.2% | 25.6% | 27.3% | 44.2% | 40.5% | 1.47 nM | 0.02 nM | 0.02 nM | 0.61 nM | 4.89 nM | – | – | –
humanized anti-CD73 antibody 22C12 VH-v10/VL-v2 (antibody, V domains shown, Human IgG1 CH1-CH3 constant region and kappa constant region; also called hu22C12 VHv10 (printed hu22C12 Vilv10) + hu22C12 Vkv2) VH: QVQLVQSGAEVKKPGASVKVSCKASGYTFTGYWIQWVRQAPGQGLEWMGAIYPGDEDTRYTQKFQGRVTMTADTSISTAYMELSRLRSDDTAVYYCARGNWDDWDFDVWGQGTTVTVSS VL: DIQMTQSPSSLSASVGDRVTITCRASQDISNYLNWYQQKPGKAPKLLIHYTSRLHSGVPSRFSGSGSGTDYTLTISSLQPEDFATYYCQQGDTLPWTFGQGTKVEIK | – | – | – | – | – | – | – | – | – | – | 0.134 nM | 0.000225 s⁻¹ | 1.68e+06 M⁻¹ s⁻¹
humanized anti-CD73 antibody 22C12 VH-v10/VL-v3 (antibody, V domains shown, Human IgG1 CH1-CH3 constant region and kappa constant region; also called hu22C12 VHv10 (printed hu22C12 Vilv10) + hu22C12 Vkv3) VH: QVQLVQSGAEVKKPGASVKVSCKASGYTFTGYWIQWVRQAPGQGLEWMGAIYPGDEDTRYTQKFQGRVTMTADTSISTAYMELSRLRSDDTAVYYCARGNWDDWDFDVWGQGTTVTVSS VL: DIQMTQSPSSLSASVGDRVTITCRASQDISNYLNWYQQKPGKAPKLLIHYTSRLHSGVPSRFSGSGSGTDFTLTISSLQPEDFATYYCQQGDTLPWTFGQGTKVEIK | – | – | – | – | – | – | – | – | – | – | 0.0956 nM | 0.000179 s⁻¹ | 1.87e+06 M⁻¹ s⁻¹
humanized anti-CD73 antibody 22C12 VH-v9/Vk-v2 (antibody, V domains shown, Human IgG1 CH1-CH3 constant region and kappa constant region; also called hu22C12 VHv9 (printed hu22C12V11v9) + hu22C12 Vkv2) VH: QVQLVQSGAEVKKPGASVKVSCKASGYTFTGYWIQWVRQAPGQGLEWMGAIYPGDSDTRYTQKFQGRVTMTADTSISTAYMELSRLRSDDTAVYYCARGNWDDWDFDVWGQGTTVTVSS VL: DIQMTQSPSSLSASVGDRVTITCRASQDISNYLNWYQQKPGKAPKLLIHYTSRLHSGVPSRFSGSGSGTDYTLTISSLQPEDFATYYCQQGDTLPWTFGQGTKVEIK | – | – | – | – | – | – | – | – | – | – | 0.135 nM | 0.000165 s⁻¹ | 1.22e+06 M⁻¹ s⁻¹

Source: US20220162331A1 (CHENGDU CONMED BIOSCIENCES, published 2022)
